In assay [1] the target is VL9 peptide HLA-E single chain trimer (soluble) (human). The experiment in a line: SPR.
Assay [2] has as its target WN peptide HLA-E single chain trimer (soluble) (human). The experiment in a line: SPR. (In general: Surface plasmon resonance follows binding to a sensor surface in real time, without labels.)

One may read the Kd as a measure of binding affinity in units of concentration. With “CD94/NKG2A single-chain fusion protein (NKG2A ectodomain-GGSGGS-CD94 ectodomain), soluble, for SPR (from UniProt P26715 94-233; Q13241 32-179) (receptor)”, the Kd in assay [1] was determined as 8.2 µM; in assay [2], 41.5 µM.

Regarding “CD94/NKG2C single-chain fusion protein (NKG2C ectodomain-GGSGGS-CD94 ectodomain), soluble, for SPR (from UniProt P26717 94-231; Q13241 32-179) (receptor)”, the Kd in assay [1] is 21.4 µM; in assay [2], 17.4 µM.
